{"source": "paper PMC4740771", "about": "“Nucleotide-dependent assembly of the peroxisomal receptor export complex” (Scientific Reports, 2016)", "details_in_all_cases": "both partners purified", "key": {"[1]": {"molecular_target": "T1, HisPex1p(E798Q) released from its GST fusion (S. cerevisiae, UniProt P24004 1-1043, E798Q)", "T1 construct": "Pex1p of yeast with a Walker B mutation of the D2 domain; also called Pex1WB^E798Q; Pex1pWB; not shown: His6, N-terminal, kept; GST, C-terminal, cleaved", "T1 sequence (looked up)": "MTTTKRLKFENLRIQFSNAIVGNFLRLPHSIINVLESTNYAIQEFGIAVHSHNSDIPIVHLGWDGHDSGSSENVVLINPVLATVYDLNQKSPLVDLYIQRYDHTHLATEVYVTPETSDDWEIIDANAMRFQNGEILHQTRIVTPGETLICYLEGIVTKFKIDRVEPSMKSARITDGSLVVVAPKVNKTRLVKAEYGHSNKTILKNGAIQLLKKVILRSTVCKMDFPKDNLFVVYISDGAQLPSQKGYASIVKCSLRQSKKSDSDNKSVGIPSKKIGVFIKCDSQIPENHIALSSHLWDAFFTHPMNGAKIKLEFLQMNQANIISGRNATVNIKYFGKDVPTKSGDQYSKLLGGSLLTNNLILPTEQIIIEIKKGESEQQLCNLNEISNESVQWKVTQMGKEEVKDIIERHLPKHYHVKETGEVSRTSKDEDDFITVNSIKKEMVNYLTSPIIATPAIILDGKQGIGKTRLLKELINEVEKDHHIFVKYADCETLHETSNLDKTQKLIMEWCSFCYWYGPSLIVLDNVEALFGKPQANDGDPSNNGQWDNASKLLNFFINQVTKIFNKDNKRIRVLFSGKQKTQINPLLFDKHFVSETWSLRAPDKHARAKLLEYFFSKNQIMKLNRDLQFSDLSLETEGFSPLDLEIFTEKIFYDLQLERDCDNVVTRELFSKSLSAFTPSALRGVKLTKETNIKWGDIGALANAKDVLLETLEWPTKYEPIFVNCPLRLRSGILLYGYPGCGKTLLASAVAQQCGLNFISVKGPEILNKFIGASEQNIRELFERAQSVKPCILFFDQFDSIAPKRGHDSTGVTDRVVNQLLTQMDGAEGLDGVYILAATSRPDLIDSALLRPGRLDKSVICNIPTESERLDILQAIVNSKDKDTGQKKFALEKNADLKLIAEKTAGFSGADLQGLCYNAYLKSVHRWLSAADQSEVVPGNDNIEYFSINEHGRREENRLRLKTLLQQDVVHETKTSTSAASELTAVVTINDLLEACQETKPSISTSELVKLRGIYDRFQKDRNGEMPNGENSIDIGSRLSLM", "assay": "SEC; second gel filtration of the purified heterohexameric complexes after incubation at 37 °C"}, "[2]": {"molecular_target": "T2, Pex15p(1-315)His (GST removed by thrombin) (S. cerevisiae, UniProt Q08215 1-315)", "T2 construct": "Pex15p of S. cerevisiae, cytosolic part, residues 1 to 315; Same construct as m10 after thrombin cleavage; detected by anti-His antibodies; Printed mass 36 kDa; alone it eluted at about 100 kDa; also called Pex15pHis; source: E. coli BL21 (DE3), purified (Glutathione Agarose 4B), released from GSH-agarose by thrombin; not shown: GST, N-terminal, cleaved; His6, C-terminal, kept", "T2 sequence (looked up)": "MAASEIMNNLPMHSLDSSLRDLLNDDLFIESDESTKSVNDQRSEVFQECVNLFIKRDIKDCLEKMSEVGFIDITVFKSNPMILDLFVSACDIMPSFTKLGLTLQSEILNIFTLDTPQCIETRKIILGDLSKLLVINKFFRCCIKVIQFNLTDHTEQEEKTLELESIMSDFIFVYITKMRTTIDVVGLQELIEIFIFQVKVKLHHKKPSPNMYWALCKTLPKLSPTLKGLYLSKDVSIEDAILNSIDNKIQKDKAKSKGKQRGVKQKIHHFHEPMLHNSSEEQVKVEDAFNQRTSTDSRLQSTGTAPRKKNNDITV", "assay": "SEC; Pex1/6p/Pex15p complex isolated on GSH-agarose, released by thrombin (GST left on the column), Superose 6 (small-scale and preparative) in presence of ATP; anti-His immunoblot or Coomassie, signal intensities by ImageJ"}, "[3]": {"molecular_target": "T3, HisPex1p released from HisPex1pGST by thrombin (S. cerevisiae, UniProt P24004 1-1043)", "T3 construct": "Pex1p, type II AAA-ATPase peroxin of yeast; The GST tag held the complex on GSH-agarose during purification and stayed on the column after thrombin cleavage; source: E. coli Tuner (DE3), co-purified with HisPex6p (NiNTA-agarose, GSH-agarose, thrombin release); not shown: His6, N-terminal, kept; GST, C-terminal, cleaved", "T3 sequence (looked up)": "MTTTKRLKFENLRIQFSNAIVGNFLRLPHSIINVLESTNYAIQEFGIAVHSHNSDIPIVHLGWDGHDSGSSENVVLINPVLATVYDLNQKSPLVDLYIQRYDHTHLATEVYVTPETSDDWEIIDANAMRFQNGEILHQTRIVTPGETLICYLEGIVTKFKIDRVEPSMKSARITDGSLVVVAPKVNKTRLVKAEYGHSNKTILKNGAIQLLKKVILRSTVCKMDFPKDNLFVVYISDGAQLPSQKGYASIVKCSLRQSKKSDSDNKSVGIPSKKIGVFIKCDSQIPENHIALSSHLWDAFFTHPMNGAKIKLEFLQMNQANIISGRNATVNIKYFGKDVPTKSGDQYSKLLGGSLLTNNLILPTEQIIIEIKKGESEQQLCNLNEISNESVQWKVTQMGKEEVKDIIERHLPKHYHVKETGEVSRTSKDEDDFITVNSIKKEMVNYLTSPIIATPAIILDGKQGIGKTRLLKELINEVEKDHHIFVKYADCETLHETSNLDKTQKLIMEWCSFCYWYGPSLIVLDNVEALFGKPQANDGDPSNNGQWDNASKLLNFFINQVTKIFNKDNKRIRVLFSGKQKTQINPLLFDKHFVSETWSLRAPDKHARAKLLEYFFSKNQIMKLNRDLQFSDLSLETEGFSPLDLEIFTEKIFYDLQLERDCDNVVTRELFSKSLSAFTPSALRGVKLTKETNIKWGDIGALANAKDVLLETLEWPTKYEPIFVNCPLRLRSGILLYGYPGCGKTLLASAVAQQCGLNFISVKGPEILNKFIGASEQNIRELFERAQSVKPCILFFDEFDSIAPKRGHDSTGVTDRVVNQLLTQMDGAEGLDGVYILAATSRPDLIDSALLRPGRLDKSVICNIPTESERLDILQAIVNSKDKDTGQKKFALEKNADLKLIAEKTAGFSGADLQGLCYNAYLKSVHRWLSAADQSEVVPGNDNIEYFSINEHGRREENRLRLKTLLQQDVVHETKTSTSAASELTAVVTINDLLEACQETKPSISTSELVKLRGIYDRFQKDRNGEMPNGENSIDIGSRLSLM", "assay": "SEC; Pex1/6p/Pex15p complex isolated on GSH-agarose, released by thrombin (GST left on the column), Superose 6 (small-scale and preparative) in presence of ATP; anti-His immunoblot or Coomassie, signal intensities by ImageJ"}}}
{"binder": "HisPex6p (natural protein, S. cerevisiae, UniProt P33760 1-1030, looked up, Pex6p, type II AAA-ATPase peroxin of yeast; also called single Pex6p; isolated Pex6p; source: E. coli Tuner (DE3), purified (NiNTA-agarose; with HisPex1pGST also GSH-agarose and size exclusion); not shown: His6, N-terminal, kept) MKASLTFSLSGIYAPCSISRDIYLEYGDKKAECLYGTIRLPQYGPGCTPGKIVHCVLDDSLPFCSIVVPSKLFGFMPTQPTMDFCYFEPILDNVVPVLDSVTFLINEQLYSKLMDLPQEMQQIQFLHYKYNINSMETVVHSRDILTSGLCQILNCSPFPQGLVDFTETQLILVNDTEQKLSALKYANEDEEYALPKIGTNSALSIDLESLPCTISRDLLRPAPHINDDNSIYAFTDAETLLRLDVTSGSFITVSNMGCVRLVKLFVLLLPNGFKKRTIYAPPKIIASFPDCSVVTISKSNIGHTDIPIANQVFISRVGGWLQSQKCFQNIILTTLKKFFSESKRILCQNDLIPIAFDSSMADLNIAEENDESDDEDELGQYYKNDSLVWFFVTSAELDCFSKDNSHFIIDPNRTKLITTNITNRRPLPLSRSNLQRYYGFAETFYYDLHIFPYVRQLVNILETSFNCSQRGITLNASVLLHSTTNNVGKATMVRFASKYLGIHLLEIDCLSLTSNSRQLDSTSKIIGYIRAKCENVLPYASPAVIFLAHLDSILLDVNANQDPEAIKLQKSINFEMSKLLDDFTFKFPGTTFVGSVNNIDNVPSSFRSHMRFEILVPVPSEAQRLRIFQWYLSSHELNRDVQQKVPVSYMDNISFSSLSSYSAGLTPLDIKSIVETARMTATARFYQESKKCGWLPQSILITQEDLSKATSKARNEFSVSIGAPQIPNVTWDDIGGIDFVKGEILDTIDMPLKHPELFTSGMKKRSGILFYGPPGTGKTLMAKAIATNFSLNFFSVKGPELLNMYIGESEANVRRVFQKAREAKPCVIFFDEIDSVAPKRGNQGDSGGVMDRIVSQLLAELDGMSTDADGVFVIGATNRPDLLDEALLRPGRFDKLLYLGIPDTDTKQLNILEALTRKFVLDNDVKLIELAKLCPFNYTGADFYALCSDAMLNAMSRIARMVEKKVSQHNELTGENISTRRWFDKIATKEDTKVVVKMEDFLKAQEQLTPSVSRAELNHYEAVRANFEGA", "values": [{"measurement": "binding result", "setting": "[1]", "value": "binds"}, {"measurement": "stoichiometry N", "setting": "[2]", "value": 1, "unit": "Pex15p per Pex6p"}, {"measurement": "stoichiometry N", "setting": "[3]", "value": 0.9, "unit": "Pex6p per Pex1p"}]}
